From patent publication US20210095041A1 (SURFACE ONCOLOGY, published 2021) come the findings set out here.

In one test the target is T1, recombinant rat CD39 (rat, UniProt P97687 38-478, limits assumed).
T1 sequence (looked up): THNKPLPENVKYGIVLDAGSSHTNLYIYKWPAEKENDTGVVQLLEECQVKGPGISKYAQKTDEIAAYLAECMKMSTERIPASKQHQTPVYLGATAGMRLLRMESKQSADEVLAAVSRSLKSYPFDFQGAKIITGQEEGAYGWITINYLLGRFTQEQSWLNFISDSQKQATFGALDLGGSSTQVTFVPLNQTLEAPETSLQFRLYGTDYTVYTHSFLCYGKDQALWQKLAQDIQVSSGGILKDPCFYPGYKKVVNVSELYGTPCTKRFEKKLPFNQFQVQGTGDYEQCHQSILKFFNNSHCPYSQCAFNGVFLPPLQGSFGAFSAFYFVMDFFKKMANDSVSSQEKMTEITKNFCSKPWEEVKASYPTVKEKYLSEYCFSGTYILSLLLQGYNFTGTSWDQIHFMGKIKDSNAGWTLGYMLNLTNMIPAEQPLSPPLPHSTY
Put plainly: BLI (Octet), clone 22 captured on AHC biosensor, recombinant rat CD39 as analyte. As to the method: (§1) In the first configuration, an Anti-Human Immunoglobulin G (IgG) Fragment Crystallizable (Fc) Capture (AHC) biosensor was used first to capture 1 μg/mL of clone 22 as the ligand onto 8 biosensors and subsequently to measure association (600 s) and dissociation (900 s) of 0 to 5 μg/mL of recombinant CD39 from either human, rat, or cynomolgus monkey as the analyte. A second configuration was required for recombinant mouse CD39 binding analysis, as the positive control antibody was a rat IgG and would not bind to the AHC biosensor. Recombinant mouse CD39 binding to clone 22 was analyzed with this second configuration to achieve a direct comparison with the positive control antibody. […] Subsequently, association (600 s) and dissociation (1200 s) of recombinant mouse CD39 (analyte) was measured at a concentration range of 0 to 5.0 μg/mL for both antibodies. […] Under both configurations, association constants (kₐ) and dissociation constants (kd) were determined and KD was calculated for each antibody where binding of the analyte was observed (clone 22 with recombinant CD39 from both human and cynomolgus monkey and Duha59 positive control antibody with recombinant mouse CD39). Kinetic binding parameters were not determined for interactions where binding was not observed (clone 22 with recombinant CD39 from both mouse and rat).

In a further test the target is T2, recombinant human CD39 (human, UniProt P49961 38-478).
T2 construct: The clone 1-20 assays used carrier-free human CD39-His lacking transmembrane domains (R&D Systems 4397-EN-010); also called rhCD39
T2 sequence (looked up): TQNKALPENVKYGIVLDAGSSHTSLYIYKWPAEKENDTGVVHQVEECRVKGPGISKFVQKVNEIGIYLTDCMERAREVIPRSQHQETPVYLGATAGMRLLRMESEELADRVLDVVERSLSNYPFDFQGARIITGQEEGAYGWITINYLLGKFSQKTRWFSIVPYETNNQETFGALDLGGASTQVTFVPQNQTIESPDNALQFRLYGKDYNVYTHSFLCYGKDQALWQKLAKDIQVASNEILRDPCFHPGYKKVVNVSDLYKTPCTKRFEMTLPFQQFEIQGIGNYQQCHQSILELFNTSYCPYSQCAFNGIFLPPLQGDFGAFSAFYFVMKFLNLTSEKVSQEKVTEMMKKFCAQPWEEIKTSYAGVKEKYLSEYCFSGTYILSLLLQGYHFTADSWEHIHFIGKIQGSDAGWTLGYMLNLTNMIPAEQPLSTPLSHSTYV
The test is described as follows: BLI (Octet), clone 22 captured on AHC biosensor, recombinant human CD39 as analyte, 1:1 model. The procedure:
as §1

Test [1] has as its target T3, recombinant cynomolgus monkey CD39 (cynomolgus monkey, UniProt A0A7N9DGH8 38-478).
T3 sequence: T2 sequence (looked up) with V10I, F57Y, V184I, I193T, I292V, K331N, A354S
The test is described as follows: BLI (Octet), clone 22 captured on AHC biosensor, recombinant cynomolgus monkey CD39 as analyte, 1:1 model. The procedure: as §1

Another test deals with T4, recombinant mouse CD39 (mouse, UniProt P55772 38-478, limits assumed).
T4 sequence (looked up): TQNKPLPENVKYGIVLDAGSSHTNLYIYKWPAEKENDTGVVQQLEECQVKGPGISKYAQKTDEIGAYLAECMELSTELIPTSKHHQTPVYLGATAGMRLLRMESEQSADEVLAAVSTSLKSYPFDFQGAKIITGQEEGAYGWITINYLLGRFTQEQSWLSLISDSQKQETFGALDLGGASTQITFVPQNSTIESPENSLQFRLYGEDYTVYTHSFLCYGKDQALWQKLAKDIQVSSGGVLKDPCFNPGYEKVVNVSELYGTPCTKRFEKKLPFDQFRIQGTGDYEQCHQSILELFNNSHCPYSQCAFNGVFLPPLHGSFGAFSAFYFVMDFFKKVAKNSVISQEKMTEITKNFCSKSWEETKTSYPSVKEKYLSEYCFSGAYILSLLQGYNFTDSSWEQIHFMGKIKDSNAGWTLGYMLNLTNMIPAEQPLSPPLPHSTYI
The test is described as follows: BLI (Octet), clone 22 amine-coupled to AR2G biosensor, recombinant mouse CD39 as analyte. As to the method: as §1

Substitutions are numbered along the chain they refer to. Numbers in names are those of the source.

B1: clone 22 (antibody, human IgG4 S228P, kappa, V domains shown)
VH: QVQLVQSGAEVKKPGSSVKVSCKASGGTFSSEGISWVRQAPGQGLEWMGSILPIFGTANYAQKFQGRVTITADESTSTAYMELSSLRSEDTAVYYCAREAGYYRYRYFDLWGRGTLVTVSS
VL: EIVMTQSPATLSVSPGERATLSCRASQSVSSNLAWYQQKPGQAPRLLIYGASTRATGIPARFSGSGSGTEFTLTISSLQSEDFAVYYCQQHALWPLTFGGGTKVEIKR
notes: Human IgG4 with the S228P mutation and a human kappa light chain; also called anti-CD39 antibody clone 22; antibody clone number 22
Regarding B1, the binding result in the test with recombinant rat CD39 is listed as “no binding (tested: 0 to 5 µg/mL recombinant rat CD39)”; in the test with recombinant mouse CD39, “no binding (tested: 0 to 5.0 µg/mL recombinant mouse CD39)”. Further, the results for the Kd (with recombinant human CD39; in test [1]) were 1.11 nM and 0.406 nM, respectively.
